According to US20250197511A1 (HORIZON THERAPEUTICS IRELAND DAC, published 2025):
Changes are numbered by the printed parent chain. Numbers in names are those of the source. One block for each binder: values may come before it.

Biological target: IGF-1R on NCI-H322 cells (UniProt P08069 31-1367, limits assumed)
Experiment: cell-based or functional assay

Chain of IGF-1R on NCI-H322 cells (P08069 31-1367 limits assumed): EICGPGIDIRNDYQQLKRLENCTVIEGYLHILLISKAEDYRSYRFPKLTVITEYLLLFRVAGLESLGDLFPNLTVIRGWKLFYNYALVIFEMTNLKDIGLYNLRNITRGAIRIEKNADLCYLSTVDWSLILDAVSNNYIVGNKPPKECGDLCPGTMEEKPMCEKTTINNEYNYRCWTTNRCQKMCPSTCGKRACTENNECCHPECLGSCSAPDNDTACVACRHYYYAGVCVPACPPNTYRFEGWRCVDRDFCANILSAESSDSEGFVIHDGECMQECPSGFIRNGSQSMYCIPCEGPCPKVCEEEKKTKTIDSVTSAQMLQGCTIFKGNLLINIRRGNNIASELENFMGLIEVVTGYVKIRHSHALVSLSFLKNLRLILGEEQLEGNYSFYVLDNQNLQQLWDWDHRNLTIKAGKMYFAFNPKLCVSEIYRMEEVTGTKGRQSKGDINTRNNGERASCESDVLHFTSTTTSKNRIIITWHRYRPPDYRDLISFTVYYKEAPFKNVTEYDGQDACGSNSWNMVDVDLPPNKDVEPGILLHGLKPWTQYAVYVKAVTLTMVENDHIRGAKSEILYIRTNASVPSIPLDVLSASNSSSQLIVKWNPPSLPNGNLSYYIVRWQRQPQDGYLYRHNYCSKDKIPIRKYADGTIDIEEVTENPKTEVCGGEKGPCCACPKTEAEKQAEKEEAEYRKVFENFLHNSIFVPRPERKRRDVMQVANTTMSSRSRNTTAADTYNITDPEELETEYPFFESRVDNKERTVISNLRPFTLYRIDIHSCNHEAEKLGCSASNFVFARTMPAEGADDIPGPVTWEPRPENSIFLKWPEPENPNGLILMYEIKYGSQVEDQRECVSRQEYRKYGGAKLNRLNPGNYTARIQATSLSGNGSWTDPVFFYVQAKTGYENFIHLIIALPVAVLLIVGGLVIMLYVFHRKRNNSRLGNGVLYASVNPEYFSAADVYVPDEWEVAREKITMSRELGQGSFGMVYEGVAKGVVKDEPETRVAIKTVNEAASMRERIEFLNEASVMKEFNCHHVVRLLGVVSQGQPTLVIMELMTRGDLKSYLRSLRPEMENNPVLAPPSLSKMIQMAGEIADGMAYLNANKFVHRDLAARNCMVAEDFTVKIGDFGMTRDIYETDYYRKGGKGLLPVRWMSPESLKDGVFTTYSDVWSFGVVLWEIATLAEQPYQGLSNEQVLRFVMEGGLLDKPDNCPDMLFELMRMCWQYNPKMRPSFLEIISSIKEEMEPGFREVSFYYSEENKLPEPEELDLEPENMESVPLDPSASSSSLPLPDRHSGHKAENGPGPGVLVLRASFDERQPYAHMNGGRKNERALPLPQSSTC

- IC50 of inhibition of IGF-1R phosphorylation (antibody dilution started at 100 ug/mL, diluted 1/8): 0.397 µg/mL
B1: Teprotumumab reference antibody (antibody, V domains shown)
VH: QVELVESGGGVVQPGRSQRLSCAASGFTFSSYGMHWVRQAPGKGLEWVAIIWFDGSSTYYADSVRGRFTISRDNSKNTLYLQMNSLRAEDTAVYFCARELGRRYFDLWGRGTLVSVSS
VL: EIVLTQSPATLSLSPGERATLSCRASQSVSSYLAWYQQKPGQAPRLLIYDASKRATGIPARFSGSGSGTDFTLTISSLEPEDFAVYYCQQRSKWPPWTFGQGTKVESK

- IC50 of inhibition of IGF-1R phosphorylation (antibody dilution started at 100 ug/mL, diluted 1/8): 0.0205 µg/mL
B2: D03-YTE (clone D03 with the YTE mutation M252Y/S254T/T256E, EU numbering) (antibody, human IgG1, kappa, V domains shown)
VH: B1 VH with Y32H, I50Y
VL: EIVLTQSPATLSLSPGERATLSCRASQSVSSALAWYQQKPGQAPRLLIYDASKRATGIPARFSGSGSGTDFTLTISSLEPEDFAVYYCQQRSKYPPWTFGQGTKVESKR
